Molecular target: the molecule itself
Experiment: cell-based or functional assay

B1: human RARα1 (a.a. 1 to 462) (receptor)
chain: MASNSSSCPTPGGGHLNGYPVPPYAFFFPPMLGGLSPPGALTTLQHQLPVSGYSTPSPATIETQSSSSEEIVPSPPSPPPLPRIYKPCFVCQDKSSGYHYGVSACEGCKGFFRRSIQKNMVYTCHRDKNCIINKVTRNRCQYCRLQKCFEVGMSKESVRNDRNKKKKEVPKPECSESYTLTPEVGELIEKVRKAHQETFPALCQLGKYTTNNSSEQRVSLDIDLWDKFSELSTKCIIKTVEFAKQLPGFTTLTIADQITLLKAACLDILILRICTRYTPEQDTMTFSDGLTLNRTQMHNAGFGPLTDLVFAFANQLLPLEMDDAETGLLSAICLICGDRQDLEQPDRVDMLQEPLLEALKVYVRKRRPSRPHMFPKMLMKITDLRSISAKGAERVITLKMEIPGSMPPLIQEMLENSEGLDTLSGQPGGGGRDGGGLAPPPGSCSPSLSPSSNRSSPATHSP
Q: Which “OMPdecase activity of the DR5-URA3 reporter in yeast” value does the source give for B1 here?
A: ~5 fold

Source: patent publication US6635429B1, “Heterodimeric nuclear receptors proteins, genes encoding same, and usage thereof” (Institut National de la Sante et de la Recherche Medicale, dated 1993)
